Results: doi:10.1101/2021.02.05.428650 (bioRxiv, 2021)
Several values for one entry are separate records, joined by “and”; a condition that tells them apart may be missing. Equal values may be shown once.

Target: the molecule itself
Test: SDS-PAGE and Western blot after detergent removal

## MIELSLIDFYLCFLAFLLFLVLIMLIIFWFSLELQDHNETCHA (natural protein) [ORF7b from SARS-CoV-2]
  stoichiometry N: ≤ 10 and 5
